B1: Ubiquitin-conjugating enzyme E2 Z (Homo sapiens), Q9H832 (parent)
chain: MAESPTEEAATAGAGAAGPGASSVAGVVGVSGSGGGFGPPFLPDVWAAAAAAGGAGGPGSGLAPLPGLPPSAAAHGAALLSHWDPTLSSDWDGERTAPQCLLRIKRDIMSIYKEPPPGMFVVPDTVDMTKIHALITGPFDTPYEGGFFLFVFRCPPDYPIHPPRVKLMTTGNNTVRFNPNFYRNGKVCLSILGTWTGPAWSPAQSISSVLISIQSLMTENPYHNEPGFEQERHPGDSKNYNECIRHETIRVAVCDMMEGKCPCPEPLRGVMEKSFLEYYDFYEVACKDRLHLQGQTMQDPFGEKRGHFDYQSLLMRLGLIRQKVLERLHNENAEMDSDSSSSGTETDLHGSLRV

Variants of: B1
Details: with ubd_human UBD

Row | effect of a mutation on the interaction | Variant
1 | decreasing interaction | MAESPTEEAATAGAGAAGPGASSVAGVVGVSGSGGGFGPPFLPDVWAAAAAAGGAGGPGSGLAPLPGLPPSAAAHGAALLSHWDPTLSSDWDGERTAPQCLLRIKRDIMSIYKEPPPGMFVVPDTVDMTKIHALITGPFDTPYEGGFFLFVFRCPPDYPIHPPRVKLMTTGNNTVRFNPNFYRNGKVCLSILGTWTGPAWSPAQSISSVLISIQSLMTENPYHNEPGFEQERHPGDSKNYNECIRHETIRVAVCDMMEGKCPCPEPLRGVMEKSFLEYYDFYEVACKDRLHLQGQTMQDPFGEKRGHFDYQSLLMRLGLIRQRVLERLHNENAEMDSDSSSSGTETDLHGSLRV [K323R]

Reference: IntAct's records for PubMed 24528925
